Test results published in the supplement of paper PMC9112550, “Optimization of the antimicrobial peptide Bac7 by deep mutational scanning” (BMC Biology, 2022).

Test system: Escherichia coli TOP10
Experiment: shrunken log2 fold change of peptide-encoding DNA abundance (4.5 h post-induction vs induction); higher = less antimicrobial activity (less host growth inhibition)
Conditions: time post-induction: 4.5 h; library: site-saturation at positions 5, 18, 19, 20
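Note: peptides expressed intracellularly from a pBAD plasmid library in pooled LB shake-flask culture, induced with 0.3% L-arabinose, DNA abundance read by NGS, three biological replicates, DESeq2 with apeglm shrinkage.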

Sequence | shrunken log2 fold change
RRIRERPPRLPRPRPRPEPWPRP | 0.0721
RRIRDRPPRLPRPRPRPAGAPRP | 0.509
RRIRDRPPRLPRPRPRPRCHPRP | -0.0835
RRIRQRPPRLPRPRPRPHVWPRP | 0.03
RRIRRRPPRLPRPRPRPDLEPRP | 0.0267
RRIRRRPPRLPRPRPRPWGLPRP | -0.222
RRIRGRPPRLPRPRPRPAAGPRP | 1.18
RRIRMRPPRLPRPRPRPYLMPRP | -0.357
RRIRMRPPRLPRPRPRPQQNPRP | 0.281
RRIRLRPPRLPRPRPRPIPDPRP | 0.00718
RRIRNRPPRLPRPRPRPRCLPRP | -0.157
RRIRMRPPRLPRPRPRPGYRPRP | 0.158
RRIRGRPPRLPRPRPRPLMKPRP | 0.635
RRIRFRPPRLPRPRPRPLPQPRP | 1.15
RRIRRRPPRLPRPRPRPFCRPRP | 0.551
RRIRMRPPRLPRPRPRPQQMPRP | -0.0302
RRIRTRPPRLPRPRPRPIHIPRP | 0.0274
RRIRRRPPRLPRPRPRPVSQPRP | 0.264
RRIRGRPPRLPRPRPRPRIYPRP | 1.15
RRIRQRPPRLPRPRPRPNQLPRP | -0.499
RRIRMRPPRLPRPRPRPSVSPRP | -0.35
RRIRKRPPRLPRPRPRPNYAPRP | -0.0324
RRIRQRPPRLPRPRPRPYAAPRP | -0.175
RRIRYRPPRLPRPRPRPSLCPRP | -0.109
RRIRQRPPRLPRPRPRPLTMPRP | 0.00947

Sequence | shrunken log2 fold change
RRIRPRPPRLPRPRPRPFHLPRP | -0.54
RRIRFRPPRLPRPRPRPVSRPRP | -0.145
RRIRLRPPRLPRPRPRPVLGPRP | 0.192
RRIRDRPPRLPRPRPRPQICPRP | -0.0334
RRIRQRPPRLPRPRPRPWWCPRP | -0.105
RRIRGRPPRLPRPRPRPKKVPRP | 0.942
RRIRQRPPRLPRPRPRPSPYPRP | -0.187
RRIRHRPPRLPRPRPRPVTWPRP | -0.268
RRIRRRPPRLPRPRPRPKVWPRP | 0.382
RRIRPRPPRLPRPRPRPKWRPRP | 0.0676
RRIRCRPPRLPRPRPRPKLGPRP | 0.0989
RRIRHRPPRLPRPRPRPMWCPRP | -0.187
RRIRWRPPRLPRPRPRPQYSPRP | -0.653
RRIRQRPPRLPRPRPRPPGKPRP | 0.0921
RRIRNRPPRLPRPRPRPSKDPRP | -0.285
RRIRGRPPRLPRPRPRPTCAPRP | 1.11
RRIRSRPPRLPRPRPRPRRGPRP | 0.538
RRIRGRPPRLPRPRPRPSWAPRP | 0.532
RRIRNRPPRLPRPRPRPVMWPRP | 0.351
RRIRSRPPRLPRPRPRPDPVPRP | 0.377
RRIRSRPPRLPRPRPRPLAVPRP | 0.0333
RRIRQRPPRLPRPRPRPQQTPRP | 0.178
RRIRYRPPRLPRPRPRPTLWPRP | 0.31
RRIRHRPPRLPRPRPRPWAEPRP | -0.119
RRIRSRPPRLPRPRPRPDHYPRP | -0.341

Sequence | shrunken log2 fold change
RRIRDRPPRLPRPRPRPHNCPRP | 0.0686
RRIRNRPPRLPRPRPRPDPVPRP | -0.137
RRIRCRPPRLPRPRPRPTRAPRP | 0.632
RRIRFRPPRLPRPRPRPPSMPRP | 0.252
RRIRDRPPRLPRPRPRPDVFPRP | 0.07
RRIRIRPPRLPRPRPRPKGWPRP | 0.364
RRIRYRPPRLPRPRPRPCWLPRP | 0.0283
RRIRDRPPRLPRPRPRPATVPRP | -0.0689
RRIRYRPPRLPRPRPRPKFFPRP | 0.131
RRIRERPPRLPRPRPRPMSPPRP | -0.0381
RRIRCRPPRLPRPRPRPFDMPRP | -0.309
RRIRSRPPRLPRPRPRPRIRPRP | -0.0466
RRIRFRPPRLPRPRPRPWDHPRP | -0.483
RRIRARPPRLPRPRPRPEIGPRP | 0.675
RRIRTRPPRLPRPRPRPALHPRP | -0.19
RRIRERPPRLPRPRPRPYRVPRP | -0.236
RRIRFRPPRLPRPRPRPMYSPRP | -0.73
RRIRRRPPRLPRPRPRPDEHPRP | -0.0368
RRIRQRPPRLPRPRPRPRIHPRP | -0.234
RRIRLRPPRLPRPRPRPPRPPRP | 0.782
RRIRGRPPRLPRPRPRPGILPRP | 0.335
RRIRWRPPRLPRPRPRPWYTPRP | -0.0512
RRIRLRPPRLPRPRPRPMSQPRP | -0.219
RRIRMRPPRLPRPRPRPHGEPRP | 0.365
RRIRCRPPRLPRPRPRPILHPRP | -0.575

Sequence | shrunken log2 fold change
RRIRARPPRLPRPRPRPGKNPRP | 0.124
RRIRGRPPRLPRPRPRPNFIPRP | -0.00471
RRIRHRPPRLPRPRPRPAPVPRP | 0.466
RRIRNRPPRLPRPRPRPGRYPRP | 0.00112
RRIRSRPPRLPRPRPRPEQNPRP | 0.274
RRIRYRPPRLPRPRPRPSRDPRP | 0.0382
RRIRCRPPRLPRPRPRPPRGPRP | 0.67
RRIRERPPRLPRPRPRPSDDPRP | -0.0902
RRIRHRPPRLPRPRPRPVYQPRP | -0.359
RRIRCRPPRLPRPRPRPHQDPRP | -0.365
RRIRMRPPRLPRPRPRPVSCPRP | 0.141
RRIRPRPPRLPRPRPRPVKPPRP | -0.14
RRIRWRPPRLPRPRPRPRHYPRP | 0.00846
RRIRCRPPRLPRPRPRPFKSPRP | 0.122
RRIRTRPPRLPRPRPRPKFRPRP | -0.204
RRIRERPPRLPRPRPRPMFCPRP | -0.168
RRIRKRPPRLPRPRPRPWGNPRP | -0.0638
RRIRWRPPRLPRPRPRPQCIPRP | -0.0652
RRIRGRPPRLPRPRPRPAMEPRP | 1
RRIRVRPPRLPRPRPRPLQRPRP | -0.0358
RRIRMRPPRLPRPRPRPNNKPRP | -0.183
RRIRTRPPRLPRPRPRPEQNPRP | 0.189
RRIRIRPPRLPRPRPRPKMWPRP | 1.25
RRIRSRPPRLPRPRPRPAAAPRP | 0.868
RRIRHRPPRLPRPRPRPNNPPRP | -0.874

Sequence | shrunken log2 fold change
RRIRVRPPRLPRPRPRPSEDPRP | 0.376
RRIRPRPPRLPRPRPRPICAPRP | 0.0637
RRIRQRPPRLPRPRPRPGMKPRP | -0.0822
RRIRQRPPRLPRPRPRPSPCPRP | -0.0648
RRIRSRPPRLPRPRPRPDKTPRP | 0.178
RRIRFRPPRLPRPRPRPLIEPRP | -0.132
RRIRHRPPRLPRPRPRPHFIPRP | -0.499
RRIRGRPPRLPRPRPRPQMPPRP | 0.225
RRIRRRPPRLPRPRPRPQFRPRP | -0.165
RRIRMRPPRLPRPRPRPKNFPRP | -0.15
RRIRDRPPRLPRPRPRPLAPPRP | 0.607
RRIRERPPRLPRPRPRPRIVPRP | -0.0184
RRIRLRPPRLPRPRPRPFIPPRP | -0.355
RRIRQRPPRLPRPRPRPDINPRP | -0.412
RRIRMRPPRLPRPRPRPAERPRP | 0.385
RRIRLRPPRLPRPRPRPFCGPRP | -0.126
RRIRVRPPRLPRPRPRPAGNPRP | 0.141
RRIRNRPPRLPRPRPRPIHLPRP | -0.73
RRIRHRPPRLPRPRPRPNPLPRP | -0.0904
RRIRCRPPRLPRPRPRPKPAPRP | 0.288
RRIRKRPPRLPRPRPRPLVQPRP | 0.459
RRIRLRPPRLPRPRPRPTVVPRP | -0.0551
RRIRERPPRLPRPRPRPENHPRP | -0.455
RRIRIRPPRLPRPRPRPVHCPRP | -0.335
RRIRRRPPRLPRPRPRPATCPRP | 0.161
